Consider two molecules from publication PMC3726423, “Comparative Study of Two Box H/ACA Ribonucleoprotein Pseudouridine-Synthases: Relation between Conformational Dynamics of the Guide RNA, Enzyme Assembly and Activity” (PLoS ONE, 2013).

For this experiment, the target named is T1, aCBF5 (P. abyssi, UniProt Q9V1A5 1-334).
T1 construct: aCBF5, archaeal H/ACA sRNP pseudouridine synthase, P. abyssi; also called pseudouridine synthase aCBF5; source: purified recombinant proteins
T1 sequence (looked up): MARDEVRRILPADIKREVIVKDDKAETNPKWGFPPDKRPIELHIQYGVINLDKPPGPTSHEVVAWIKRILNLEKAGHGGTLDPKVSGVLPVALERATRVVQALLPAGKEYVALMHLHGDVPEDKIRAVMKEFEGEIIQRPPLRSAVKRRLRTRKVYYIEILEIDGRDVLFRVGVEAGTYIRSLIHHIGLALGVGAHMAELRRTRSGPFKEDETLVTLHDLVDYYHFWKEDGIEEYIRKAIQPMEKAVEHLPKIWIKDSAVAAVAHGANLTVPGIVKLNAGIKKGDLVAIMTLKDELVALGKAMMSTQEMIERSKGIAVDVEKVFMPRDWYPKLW
Put plainly: native gel or EMSA; 32P 5' end-labelled sRNA Pab21 or Pab91 (~50 fmol) incubated with the proteins (200 nM each) in buffer D (150 mM KCl, 1.5 mM MgCl2, 0.2 mM EDTA, 20 mM HEPES pH 7.9) at 65°C for 10 min; non-denaturing polyacrylamide gel; the proteins are seen only through the shift of the labelled sRNA. As to conditions: both partners purified.

Residue numbers refer to the chain shown, from its start. Names may count otherwise.

B1: aNOP10 (natural protein, P. abyssi, UniProt Q9V0E3 1-60, looked up)
chain: MRFRIRKCPKCGRYTLKETCPVCGEKTKVAHPPRFSPEDPYGEYRRRLKRELLGIGRKEK
notes: aNOP10, archaeal H/ACA sRNP core protein, P. abyssi; source: purified recombinant proteins
For the molecule B1, the binding result was “binds”.

B2: aNOP10 Y41A/Y44A (natural protein, P. abyssi, UniProt Q9V0E3 1-60, looked up)
chain: B1 chain with Y41A, Y44A
notes: aNOP10, P. abyssi, with two alanine substitutions in helix alpha1; also called aNOP10 mutant Y41A/Y44A; source: purified recombinant proteins
As for B2, the binding result is “binds”.
